Earlier results in publication PMC2912364.

Molecular target: IL-15Rα (UniProt Q13261)
Chain of UniProt Q13261 (Q13261 31-205): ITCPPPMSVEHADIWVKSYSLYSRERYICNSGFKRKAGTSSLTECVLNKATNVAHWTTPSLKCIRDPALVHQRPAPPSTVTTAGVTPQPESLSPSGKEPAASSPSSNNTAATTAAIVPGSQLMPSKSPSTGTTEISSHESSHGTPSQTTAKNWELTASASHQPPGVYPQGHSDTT

Substance: IL-15 (from UniProt P40933)
- Kd: 0.038 nM
